Where a chain is given by its changes, count along the chain named.
B1: S1R3B2_BMV_1H5 (scFv, V domains shown)
VH: EVQLVQSGGGLVRPGGSLRLSCAASGFSFSDYYMTWIRQIPGKGLEWVAVIWNDGSDRYYADSVKGRFTISRDNSKNTLFLQMSSLRDEDTALYYCVRGGPTASSGFDYWGRGTLVTVSS
VL: SSELTQPASVSGSPGQSITISCTGTSSDVGGYNYVSWYLQHPGKAPKLMIYEGSKRPSGVSNRFSGSKSGNTASLTISGLQAEDEADYYCSSYTTRSTRVFGGGTKLTVLG
notes: also called Her2_S1R3B2_BMV_1H5
B2: S1R3C1_CS_1A6 (scFv, V domains shown)
VH: EVQLVQSGAEVKKPGESLKISCKGFGYNFRSAWIGWVRQMPGKGLEWMGVIYPGDSDVRYSPSFQGQVTISADKSISTAYLQWSSLKASDTAMYYCTRPVGQWVDSDYWGKGTLVTVSS
VL: QSVLTQPPSASGTPGQRVTISCSGSSSNIGTNTVNWYQQLPGTAPKLLIYTSNQRPSGVPARFSASNSGTSASLAISGLRSEDEADYYCAAWDDKLSGAVFGGGTKLTVLG
notes: also called Her2_S1R3C1_CS_1A6
B3: S1R3B2_DP47_1E10 (scFv, V domains shown)
VH: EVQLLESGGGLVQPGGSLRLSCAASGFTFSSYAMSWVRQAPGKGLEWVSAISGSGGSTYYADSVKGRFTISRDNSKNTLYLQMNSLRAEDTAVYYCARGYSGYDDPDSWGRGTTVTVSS
VL: HVILTQPPSTSGTPGQTVTISCSGSSSNIGSHYVYWYQQLPGTAPKLLIYRNNQRPSGVPDRFSGSKSGTSASLAISGLRSEDETDYYCAAWDDSLSGRVFGTGTKLTVLG
notes: also called Her2_S1R3B2_DP47_1E10
B4: S1R3B1_BMV_1G11 (scFv, V domains shown)
VH: QVQLVQSGGGLVQPGGSLRLSCAASGFTFSTYAMSWARQAPGKGLEWVSSISGDGGRILDADSAKGRFTISRDNSKNTLYLQMNGLRVEDTALYYCARADGNYWGRGTMVTVSS
VL: B1 VL with S1Q, E3V, L39Q
notes: scFv (one chain), soluble from the bacterial periplasm in the screening; also called Her2_S1R3B1_BMV_1G11
B5: S1R3A1_BMV_1G4 (scFv, V domains shown)
VH: QVQLVESGAEVKKPGASVKVSCKASGYTFTSYDINWVRQAPGQRLEWMGWINAGNGNTKYSQKFQGRVTITRDTSASTAYMELRSLRSDDTAVYYCARGRSYGHPYYFDYWGQGTLVTVSS
VL: B1 VL with S1Q, E3V, L39Q
notes: scFv (one chain), soluble from the bacterial periplasm in the screening; also called Her2_S1R3A1_BMV_1G4
B6: S1R3B1_BMV_1H11 (scFv, V domains shown)
VH: EVQLVQSGGGLVKPGGSLRLSCAASGFTFSSYGMHWVRQAPGKGLEWVAGIFYDGGNKYYADSVKGRFTISRDNSKNTLYLQMNSLRAEDTAVYYCARDRGYYYMDVWGKGTTVTVSS
VL: QSVLTQPPSVSGAPGQRVTISCTGRSSNIGAGHDVHWYQQLPGTAPKLLIYGDSNRPSGVPDRFSGSRSGTSASLAITGLQAEDEADYYCQSYDSSLRGSVFGGGTKVTVLG
notes: scFv (one chain), soluble from the bacterial periplasm in the screening; also called Her2_S1R3B1_BMV_1H11
B7: S1R3C1_BMV_1H11 (scFv, V domains shown)
VH: GVQLVESGGGLVKPGGSLRLSCAASGFTFSSYNMNWVRQAPGKGLEWVSAISGSGGSTYYADSVTGRFTISRDNSKNTLYLQMNSLRAEDTAVYYCAKDTSGWYGDGMDVWGRGTLVTVSS
VL: DIQMTQSPSTLSASIGDRVTITCRASEGIYHWLAWYQQKPGKAPKLLIYKASSLASGAPSRFSGSGSGTDFTLTISSLQPDDFATYYCQQYSNYPLTFGGGTKLEIKR
notes: scFv (one chain), soluble from the bacterial periplasm in the screening; also called Her2_S1R3C1_BMV_1H11
B8: S1R3B1_BMV_1A10 (scFv, V domains shown)
VH: QMQLVQSGGGVVQPGRSLRLSCAASGFTFSSYGMHWVRQAPGKGLEWVAVISYDGSIKYYADSVKGRFTISRDNSKNTLYLQMNSLRAEDTGVYYCSKDRYSSGWYSSDAFDIWGRGTMVTVSS
VL: SSELTQDPAVSVALGQTVRITCQGDSLRSYYASWYQQKPGQAPVLVIYGKNNRPSGIPDRFSGSSSGNTASLTITGAQAEDEADYYCHSRDSSGNHVLFGGGTKLTVLG
notes: scFv (one chain), soluble from the bacterial periplasm in the screening; also called Her2_S1R3B1_BMV_1A10
B9: S1R3C1_DP47_1H1 (scFv, V domains shown)
VH: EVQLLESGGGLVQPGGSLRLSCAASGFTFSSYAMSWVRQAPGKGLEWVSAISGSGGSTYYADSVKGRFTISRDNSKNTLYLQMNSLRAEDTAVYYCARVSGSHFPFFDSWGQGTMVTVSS
VL: QSVLTQPPSVSVAPGQTARITCGGDKIGHKSVHWYQQKPGQAPVLLVYDDRKRPSGIPERFSGSNSGNTATLTISRVEAGDEAAYHCQVWDRSSDPYVFGTGTKVTVLG
notes: scFv (one chain), soluble from the bacterial periplasm in the screening; also called Her2_S1R3C1_DP47_1H1
B10: S1R3A1_CS_1B12 (scFv, V domains shown)
VH: QVQLVQSGAEVKKPGASVKVSCQASGYTFSGHYMHLVRQAPGQGLEWMGWIHPTSGGTTYAQKFQGRVVMTRDTSISTAYMELSRLTSDDTAVYYCARMSQNYDAFDIWGQGTMVTVSS
VL: QAVLTQPSSVSGAPGQRVTISCTGSSSNIGAGYDVNWYQQFPGTAPKIIVYGDRPSGAPDRFSGSKSGTSASLAITGLRAEDEADYYCQSWDSRLSSYVFGTGTKVTVLG
notes: scFv (one chain), soluble from the bacterial periplasm in the screening; also called Her2_S1R3A1_CS_1B12
B11: S1R3A1_DP47_1A6 (scFv, V domains shown)
VH: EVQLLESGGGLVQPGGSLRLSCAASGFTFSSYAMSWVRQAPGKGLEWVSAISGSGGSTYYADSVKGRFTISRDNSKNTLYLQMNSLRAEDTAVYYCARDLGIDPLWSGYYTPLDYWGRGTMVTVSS
VL: HVILTQPPSASGTPGQRVTISCSGSSSNIGSNSVSWYQQLPGTAPKLLMYTNNQRPSGVPDRFSGSKSGTSASLAISGLQSEDEADYYCATWDASLNTWVFGGGTKVTVLG
notes: scFv (one chain), soluble from the bacterial periplasm in the screening; also called Her2_S1R3A1_DP47_1A6
B12: S1R3B1_BMV_1A1 (scFv, V domains shown)
VH: EVQLVQSGAEVKEPGASVKVSCKASGYDFSNYGFSWVRQAPGQGLEWMGWISSYNGYTNYAQRLQGRVTMTTDTSTSTAYMELRSLRSDDTAVYYCARDRGLGNWYFDLWGQGTLVTVSS
VL: B1 VL with S1Q, E3V, L39Q
notes: scFv (one chain), soluble from the bacterial periplasm in the screening; also called Her2_S1R3B1_BMV_1A1
B13: S1R2C_CS_1H12 (scFv, V domains shown)
VH: EVQLVETGGGLVQPGGSLRLSCAASGFTFSSYGMNWVRQAPGKGLEWVSYISSSGNTIFYADSVKGRFTISRDSAKNSVSLQMNSLRDEDTAVYYCASYYSYYYGMDAWGQGTMVTV
VL: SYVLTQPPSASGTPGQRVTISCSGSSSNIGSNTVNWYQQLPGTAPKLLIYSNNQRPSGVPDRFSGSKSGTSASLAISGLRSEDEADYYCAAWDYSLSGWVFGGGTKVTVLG
B14: S1R2A_CS_1D3 (scFv, V domains shown)
VH: EVQLVQSGAEVKKPGASVKVSCKASGYSFTAFYIHWVRQAPGQGLEYLGWIDPNTGATKYAQRFQGRVIMTWDTSITTATMELSRLTSDDSAVYYCVRDLREWGYELSVEYWGRGTLVTVSS
VL: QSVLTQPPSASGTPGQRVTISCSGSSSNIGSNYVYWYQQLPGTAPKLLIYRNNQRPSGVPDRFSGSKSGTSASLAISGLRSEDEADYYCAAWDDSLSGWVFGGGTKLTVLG
B15: S1R3C1_CS_1D3 (scFv, V domains shown)
VH: QVQLQESGPGLVKPSQTLSLTCGISGDSVSSNSAAWNWIRQSPTRGLEWLGRTYYRSSWYHNYAPSMNSRLTIIADTSKNQFSLQLNSVTPEDTAVYYCASGWAFDVWGRGTLVTVSS
VL: QSVLTQPPSASGSPGQSVTISCTGTSSDVGAYDFVSWYQQHPGKAPKLMIYEVNKRPSGVPDRFSGSKSGNTASLTVSGLQAEDEADYYCSSYAGSKNLLFGGGTKLTVLG
notes: also called Her2_S1R3C1_CS_1D3
B16: S1R3B2_DP47_1E8 (scFv, V domains shown)
VH: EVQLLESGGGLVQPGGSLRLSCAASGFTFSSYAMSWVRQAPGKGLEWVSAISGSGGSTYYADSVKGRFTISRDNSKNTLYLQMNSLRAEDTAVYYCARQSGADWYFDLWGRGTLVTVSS
VL: QAVLTQPSAVSGAPGQRVTISCTGTSSNIGTNYLVHWYQQRPGTAPQLLVSGNNTRPSGVTDRFSVSKSATSASLAITGLQAEDEADYYCQTYDINLRVWVFGGGTKVTVLG
notes: also called Her2_S1R3B2_DP47_1E8
B17: S1R3B2_BMV_1G2 (scFv, V domains shown)
VH: QVQLVQSGAEVKKPGSSVKVSCKASGYTFTSYGISWVRQAPGQGLEWMGWISAYNGNTNYAQKLQGRVTMTTDTSTSTAYMELRSLRSDDTAVYYCARVPGVSGSYPDYYYMDVWGKGTLVTVSS
VL: B7 VL
notes: also called Her2_S1R3B2_BMV_1G2

Legend:
[1] = target: T1, extracellular domain (ECD) of Her2 (ErbB2) (human, UniProt P04626 23-652); assay: three rounds of selection and screening ELISA, scFv on phage
T1 construct: Target as named in the sentence on the thirty-one scFvs; also called ECD region of Her2

[2] = target: T1, extracellular domain (ECD) of Her2 …; assay: three rounds of selection and screening ELISA, soluble periplasmic scFv

Binder	binding result [1]	binding result [2]
B1	binds	
B2	binds	
B3	binds	
B4		binds
B5		binds
B6		binds
B7		binds
B8		binds
B9		binds
B10		binds
B11		binds
B12		binds
B13	binds	
B14	binds	
B15	binds	
B16	binds	
B17	binds	

From patent publication WO2009055074A2 (dated 2009)
